Source: paper PMC9482650, “Quantitative fragmentomics allow affinity mapping of interactomes” (Nature Communications, 2022)

T1: ARHGAP21, Q5T5U3
T1 sequence (Q5T5U3 45-169, limits assumed, looked up): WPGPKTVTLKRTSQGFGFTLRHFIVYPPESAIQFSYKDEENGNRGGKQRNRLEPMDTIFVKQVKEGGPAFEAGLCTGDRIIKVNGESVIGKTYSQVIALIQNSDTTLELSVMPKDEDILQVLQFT

T2: DFNB31_2, Q9P202
T2 sequence (Q9P202 274-371, limits assumed, looked up): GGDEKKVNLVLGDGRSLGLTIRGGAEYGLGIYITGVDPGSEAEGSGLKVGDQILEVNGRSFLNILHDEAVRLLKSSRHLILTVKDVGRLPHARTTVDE

T3: FRMPD1, Q5SYB0
T3 sequence (Q5SYB0 52-145, limits assumed, looked up): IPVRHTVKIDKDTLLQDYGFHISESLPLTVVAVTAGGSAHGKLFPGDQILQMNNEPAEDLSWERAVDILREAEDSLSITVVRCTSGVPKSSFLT

T4: HTRA3, P83110
T4 sequence (P83110 354-453, limits assumed, looked up): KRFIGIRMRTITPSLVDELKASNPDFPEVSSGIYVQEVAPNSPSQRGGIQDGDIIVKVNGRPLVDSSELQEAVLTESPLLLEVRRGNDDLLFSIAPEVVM

T5: LRRC7, Q96NW7
T5 sequence (Q96NW7 1440-1537, limits assumed, looked up): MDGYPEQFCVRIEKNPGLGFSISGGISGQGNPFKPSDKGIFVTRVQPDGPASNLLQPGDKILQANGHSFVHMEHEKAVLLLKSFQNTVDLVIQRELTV

T6: MPDZ_10, O75970
T6 sequence (O75970 1624-1722, limits assumed, looked up): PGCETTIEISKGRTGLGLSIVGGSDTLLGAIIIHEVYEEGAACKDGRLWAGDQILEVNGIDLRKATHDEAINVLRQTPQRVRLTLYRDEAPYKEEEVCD

T7: MPDZ_5, O75970
T7 sequence (O75970 695-796, limits assumed, looked up): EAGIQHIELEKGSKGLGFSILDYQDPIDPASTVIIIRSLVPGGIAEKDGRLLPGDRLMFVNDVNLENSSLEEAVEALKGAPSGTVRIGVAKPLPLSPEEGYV

T8: MPP7, Q5T2T1
T8 sequence (Q5T2T1 134-230, limits assumed, looked up): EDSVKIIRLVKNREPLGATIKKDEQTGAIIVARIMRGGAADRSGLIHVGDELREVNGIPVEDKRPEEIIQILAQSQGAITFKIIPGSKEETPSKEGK

T9: PDZRN3_1, Q9UPQ7
T9 sequence (Q9UPQ7 244-349, limits assumed, looked up): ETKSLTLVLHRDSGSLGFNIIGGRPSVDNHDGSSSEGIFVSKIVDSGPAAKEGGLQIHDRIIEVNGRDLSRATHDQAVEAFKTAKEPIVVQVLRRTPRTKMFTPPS

T10: RHPN1, Q8TCX5
T10 sequence (Q8TCX5 508-602, limits assumed, looked up): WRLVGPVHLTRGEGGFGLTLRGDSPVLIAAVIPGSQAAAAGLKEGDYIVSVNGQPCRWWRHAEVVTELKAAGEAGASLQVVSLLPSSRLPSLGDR

T11: SNTB1, Q13884
T11 sequence (Q13884 107-205, limits assumed, looked up): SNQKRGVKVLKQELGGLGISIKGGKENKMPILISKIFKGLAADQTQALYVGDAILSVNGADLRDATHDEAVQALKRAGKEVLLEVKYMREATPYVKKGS


target: T1, ARHGAP21, Q5T5U3; experiment: holdup assay; parameters: key: below the threshold = too weak to quantify, mostly under pKd 3.1 to 4; settings: plain residues with an end cap or a label only (N-terminal biotin on a linker: ado-ado)

Binder	pKd
EAVTVESTSL [SLC22A11, Q9NSA0]	4.12
PALKNGQYWV [CSPG4, Q6UVK1]	below the threshold

target: T2, DFNB31_2, Q9P202; experiment: holdup assay; parameters: key: below the threshold = too weak to quantify, mostly under pKd 3.1 to 4; settings: plain residues with an end cap or a label only (N-terminal biotin on a linker: ado-ado)

Binder	pKd
EAVTVESTSL [SLC22A11, Q9NSA0]	below the threshold
PALKNGQYWV [CSPG4, Q6UVK1]	below the threshold

target: DLG2_3, Q15700; experiment: holdup assay; parameters: key: below the threshold = too weak to quantify, mostly under pKd 3.1 to 4; settings: plain residues with an end cap or a label only (N-terminal biotin on a linker: ado-ado)

Binder	pKd
EAVTVESTSL [SLC22A11, Q9NSA0]	below the threshold
PALKNGQYWV [CSPG4, Q6UVK1]	below the threshold

target: DLG4_1, P78352; experiment: holdup assay; parameters: key: below the threshold = too weak to quantify, mostly under pKd 3.1 to 4; settings: plain residues with an end cap or a label only (N-terminal biotin on a linker: ado-ado)
Sequence (P78352 62-152): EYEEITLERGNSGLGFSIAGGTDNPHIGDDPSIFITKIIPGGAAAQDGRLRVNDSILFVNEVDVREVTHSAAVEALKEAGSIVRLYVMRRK

Binder	pKd
EAVTVESTSL [SLC22A11, Q9NSA0]	3.65
PALKNGQYWV [CSPG4, Q6UVK1]	below the threshold

target: T3, FRMPD1, Q5SYB0; experiment: holdup assay; parameters: key: below the threshold = too weak to quantify, mostly under pKd 3.1 to 4; settings: plain residues with an end cap or a label only (N-terminal biotin on a linker: ado-ado)

Binder	pKd
EAVTVESTSL [SLC22A11, Q9NSA0]	below the threshold
PALKNGQYWV [CSPG4, Q6UVK1]	below the threshold

target: FRMPD2_2, Q68DX3; experiment: holdup assay; parameters: key: below the threshold = too weak to quantify, mostly under pKd 3.1 to 4; settings: plain residues with an end cap or a label only (N-terminal biotin on a linker: ado-ado)
Sequence (Q68DX3 944-1038): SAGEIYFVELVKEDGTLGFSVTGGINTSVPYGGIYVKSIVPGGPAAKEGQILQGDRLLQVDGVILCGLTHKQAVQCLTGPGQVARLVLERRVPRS

Binder	pKd
EAVTVESTSL [SLC22A11, Q9NSA0]	below the threshold
PALKNGQYWV [CSPG4, Q6UVK1]	below the threshold

target: GORASP1, Q9BQQ3; experiment: holdup assay; parameters: key: below the threshold = too weak to quantify, mostly under pKd 3.1 to 4; settings: plain residues with an end cap or a label only (N-terminal biotin on a linker: ado-ado)
Sequence (Q9BQQ3 1-208): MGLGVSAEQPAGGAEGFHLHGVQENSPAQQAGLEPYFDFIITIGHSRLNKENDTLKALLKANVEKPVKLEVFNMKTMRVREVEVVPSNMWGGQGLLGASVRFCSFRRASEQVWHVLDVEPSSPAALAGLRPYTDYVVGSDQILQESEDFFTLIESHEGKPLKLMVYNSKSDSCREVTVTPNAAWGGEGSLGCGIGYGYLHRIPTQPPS

Binder	pKd
EAVTVESTSL [SLC22A11, Q9NSA0]	below the threshold
PALKNGQYWV [CSPG4, Q6UVK1]	5.29

target: GORASP2, Q9H8Y8; experiment: holdup assay; parameters: key: below the threshold = too weak to quantify, mostly under pKd 3.1 to 4; settings: plain residues with an end cap or a label only (N-terminal biotin on a linker: ado-ado)

Binder	pKd
EAVTVESTSL [SLC22A11, Q9NSA0]	below the threshold
PALKNGQYWV [CSPG4, Q6UVK1]	5.82

target: GRIP2_6, Q9C0E4; experiment: holdup assay; parameters: key: below the threshold = too weak to quantify, mostly under pKd 3.1 to 4; settings: plain residues with an end cap or a label only (N-terminal biotin on a linker: ado-ado)
Sequence (Q9C0E4 648-740): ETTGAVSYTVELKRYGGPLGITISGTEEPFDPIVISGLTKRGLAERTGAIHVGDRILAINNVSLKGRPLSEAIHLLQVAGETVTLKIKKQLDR

Binder	pKd
EAVTVESTSL [SLC22A11, Q9NSA0]	below the threshold
PALKNGQYWV [CSPG4, Q6UVK1]	3.58

target: T4, HTRA3, P83110; experiment: holdup assay; parameters: key: below the threshold = too weak to quantify, mostly under pKd 3.1 to 4; settings: plain residues with an end cap or a label only (N-terminal biotin on a linker: ado-ado)

Binder	pKd
EAVTVESTSL [SLC22A11, Q9NSA0]	below the threshold
PALKNGQYWV [CSPG4, Q6UVK1]	5.46

target: IL16_1, Q14005; experiment: holdup assay; parameters: key: below the threshold = too weak to quantify, mostly under pKd 3.1 to 4; settings: plain residues with an end cap or a label only (N-terminal biotin on a linker: ado-ado)
Sequence (Q14005 210-306): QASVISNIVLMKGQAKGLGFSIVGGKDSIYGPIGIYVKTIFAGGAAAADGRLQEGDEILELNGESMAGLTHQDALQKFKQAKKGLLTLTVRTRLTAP

Binder	pKd
EAVTVESTSL [SLC22A11, Q9NSA0]	below the threshold
PALKNGQYWV [CSPG4, Q6UVK1]	3.79

target: Inadl_1, Q8NI35; experiment: holdup assay; parameters: key: below the threshold = too weak to quantify, mostly under pKd 3.1 to 4; settings: plain residues with an end cap or a label only (N-terminal biotin on a linker: ado-ado)
Sequence (Q8NI35 113-229): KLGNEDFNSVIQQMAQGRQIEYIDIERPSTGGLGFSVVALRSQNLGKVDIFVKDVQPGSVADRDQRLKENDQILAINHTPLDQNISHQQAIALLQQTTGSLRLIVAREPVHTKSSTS

Binder	pKd
EAVTVESTSL [SLC22A11, Q9NSA0]	below the threshold
PALKNGQYWV [CSPG4, Q6UVK1]	4.09

target: Inadl_3, Q8NI35; experiment: holdup assay; parameters: key: below the threshold = too weak to quantify, mostly under pKd 3.1 to 4; settings: plain residues with an end cap or a label only (N-terminal biotin on a linker: ado-ado)
Sequence (Q8NI35 359-469): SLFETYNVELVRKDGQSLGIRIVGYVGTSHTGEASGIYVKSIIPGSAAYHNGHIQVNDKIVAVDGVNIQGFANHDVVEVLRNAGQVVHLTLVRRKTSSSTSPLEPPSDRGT

Binder	pKd
EAVTVESTSL [SLC22A11, Q9NSA0]	below the threshold
PALKNGQYWV [CSPG4, Q6UVK1]	3.58

target: Inadl_4, Q8NI35; experiment: holdup assay; parameters: key: below the threshold = too weak to quantify, mostly under pKd 3.1 to 4; settings: plain residues with an end cap or a label only (N-terminal biotin on a linker: ado-ado)
Sequence (Q8NI35 547-651): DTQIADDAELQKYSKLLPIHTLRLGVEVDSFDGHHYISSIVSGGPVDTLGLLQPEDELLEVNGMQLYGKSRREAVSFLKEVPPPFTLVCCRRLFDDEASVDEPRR

Binder	pKd
EAVTVESTSL [SLC22A11, Q9NSA0]	below the threshold
PALKNGQYWV [CSPG4, Q6UVK1]	below the threshold

target: T5, LRRC7, Q96NW7; experiment: holdup assay; parameters: key: below the threshold = too weak to quantify, mostly under pKd 3.1 to 4; settings: plain residues with an end cap or a label only (N-terminal biotin on a linker: ado-ado)

Binder	pKd
EAVTVESTSL [SLC22A11, Q9NSA0]	below the threshold
PALKNGQYWV [CSPG4, Q6UVK1]	3.7

target: T6, MPDZ_10, O75970; experiment: holdup assay; parameters: key: below the threshold = too weak to quantify, mostly under pKd 3.1 to 4; settings: plain residues with an end cap or a label only (N-terminal biotin on a linker: ado-ado)

Binder	pKd
EAVTVESTSL [SLC22A11, Q9NSA0]	below the threshold
PALKNGQYWV [CSPG4, Q6UVK1]	below the threshold

target: T7, MPDZ_5, O75970; experiment: holdup assay; parameters: key: below the threshold = too weak to quantify, mostly under pKd 3.1 to 4; settings: plain residues with an end cap or a label only (N-terminal biotin on a linker: ado-ado)

Binder	pKd
EAVTVESTSL [SLC22A11, Q9NSA0]	below the threshold
PALKNGQYWV [CSPG4, Q6UVK1]	4.2

target: T8, MPP7, Q5T2T1; experiment: holdup assay; parameters: key: below the threshold = too weak to quantify, mostly under pKd 3.1 to 4; settings: plain residues with an end cap or a label only (N-terminal biotin on a linker: ado-ado)

Binder	pKd
EAVTVESTSL [SLC22A11, Q9NSA0]	below the threshold
PALKNGQYWV [CSPG4, Q6UVK1]	3.96

target: NHERF4_1, Q86UT5-2; experiment: holdup assay; parameters: key: below the threshold = too weak to quantify, mostly under pKd 3.1 to 4; settings: plain residues with an end cap or a label only (N-terminal biotin on a linker: ado-ado)
Sequence (Q86UT5 other isoform, or with tags, fused parts or gaps): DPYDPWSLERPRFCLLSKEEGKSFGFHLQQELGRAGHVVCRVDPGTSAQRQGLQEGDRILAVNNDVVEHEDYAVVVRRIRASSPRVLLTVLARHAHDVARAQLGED

Binder	pKd
EAVTVESTSL [SLC22A11, Q9NSA0]	4.55
PALKNGQYWV [CSPG4, Q6UVK1]	3.5

target: NHERF4_4, Q86UT5; experiment: holdup assay; parameters: key: below the threshold = too weak to quantify, mostly under pKd 3.1 to 4; settings: plain residues with an end cap or a label only (N-terminal biotin on a linker: ado-ado)
Sequence (Q86UT5 464-550): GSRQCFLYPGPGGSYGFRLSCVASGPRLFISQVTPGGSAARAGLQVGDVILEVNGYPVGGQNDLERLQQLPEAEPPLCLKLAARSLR

Binder	pKd
EAVTVESTSL [SLC22A11, Q9NSA0]	below the threshold
PALKNGQYWV [CSPG4, Q6UVK1]	4.05

target: PDLIM1, O00151; experiment: holdup assay; parameters: key: below the threshold = too weak to quantify, mostly under pKd 3.1 to 4; settings: plain residues with an end cap or a label only (N-terminal biotin on a linker: ado-ado)
Sequence (O00151 1-87): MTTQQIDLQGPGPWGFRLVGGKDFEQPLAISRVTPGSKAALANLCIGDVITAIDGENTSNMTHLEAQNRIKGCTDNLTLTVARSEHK

Binder	pKd
EAVTVESTSL [SLC22A11, Q9NSA0]	3.71
PALKNGQYWV [CSPG4, Q6UVK1]	below the threshold

target: T9, PDZRN3_1, Q9UPQ7; experiment: holdup assay; parameters: key: below the threshold = too weak to quantify, mostly under pKd 3.1 to 4; settings: plain residues with an end cap or a label only (N-terminal biotin on a linker: ado-ado)

Binder	pKd
EAVTVESTSL [SLC22A11, Q9NSA0]	4.24
PALKNGQYWV [CSPG4, Q6UVK1]	below the threshold

target: T10, RHPN1, Q8TCX5; experiment: holdup assay; parameters: key: below the threshold = too weak to quantify, mostly under pKd 3.1 to 4; settings: plain residues with an end cap or a label only (N-terminal biotin on a linker: ado-ado)

Binder	pKd
EAVTVESTSL [SLC22A11, Q9NSA0]	4.86
PALKNGQYWV [CSPG4, Q6UVK1]	below the threshold

target: SCRIB_1, Q14160; experiment: holdup assay; parameters: key: below the threshold = too weak to quantify, mostly under pKd 3.1 to 4; settings: plain residues with an end cap or a label only (N-terminal biotin on a linker: ado-ado)
Sequence (Q14160 718-814): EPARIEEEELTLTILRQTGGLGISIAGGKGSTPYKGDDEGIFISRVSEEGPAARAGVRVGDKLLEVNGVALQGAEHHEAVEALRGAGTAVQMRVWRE

Binder	pKd
EAVTVESTSL [SLC22A11, Q9NSA0]	4.56
PALKNGQYWV [CSPG4, Q6UVK1]	below the threshold

target: SCRIB_3, Q14160; experiment: holdup assay; parameters: key: below the threshold = too weak to quantify, mostly under pKd 3.1 to 4; settings: plain residues with an end cap or a label only (N-terminal biotin on a linker: ado-ado)
Sequence (Q14160 999-1103): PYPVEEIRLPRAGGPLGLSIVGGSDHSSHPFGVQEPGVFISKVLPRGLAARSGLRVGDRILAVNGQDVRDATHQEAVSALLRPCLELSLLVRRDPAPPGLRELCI

Binder	pKd
EAVTVESTSL [SLC22A11, Q9NSA0]	4.75
PALKNGQYWV [CSPG4, Q6UVK1]	3.58

target: T11, SNTB1, Q13884; experiment: holdup assay; parameters: key: below the threshold = too weak to quantify, mostly under pKd 3.1 to 4; settings: plain residues with an end cap or a label only (N-terminal biotin on a linker: ado-ado)

Binder	pKd
EAVTVESTSL [SLC22A11, Q9NSA0]	3.94
PALKNGQYWV [CSPG4, Q6UVK1]	below the threshold

target: TJP1_2, Q07157; experiment: holdup assay; parameters: key: below the threshold = too weak to quantify, mostly under pKd 3.1 to 4; settings: plain residues with an end cap or a label only (N-terminal biotin on a linker: ado-ado)
Sequence (Q07157 181-274): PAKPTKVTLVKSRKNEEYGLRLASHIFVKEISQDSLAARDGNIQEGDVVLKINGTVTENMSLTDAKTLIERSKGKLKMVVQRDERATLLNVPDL

Binder	pKd
EAVTVESTSL [SLC22A11, Q9NSA0]	below the threshold
PALKNGQYWV [CSPG4, Q6UVK1]	4.69
